Test results as given in US20250215403A1, “Compositions and Methods for Cardiac Tissue Regeneration” (Temple University - Of The Commonwealth System Of Higher …, priority 2022, published 2025).

Tests used:
cardiomyocytes (CM) = assay: Mouse MI model: immunostaining of heart sections for CM cell cycle markers (ki67, pH3, BrdU, Aurora B); assay type: in vivo; settings: seven days post-MI
Method: All surgical and experimental procedures with mice were performed in accordance with protocols approved by Institutional Animal Care and Use Committees at Temple University Animal Care and Use Committee (IACUC). C57BL6 or CM-specific MADM mice (8-12-weeks-old) were anesthetized with isoflurane. MI was induced by permanent ligation of the LAD, as previously described (Garikipati, V. N. S., et al., 2019, Nature Communications, 10:4317). Briefly, the left thoracic region was shaved and sterilized. After intubation, the heart was exposed through a left thoracotomy. A suture was placed to ligate the LAD. The thoracotomy and skin were sutured closed in layers. Excess air was removed from the thoracic cavity, and the mouse was removed from ventilation when normal breathing was established. In order to determine the effect of modRNA on cardiovascular outcome after MI, modRNAs (100 μg/heart) were injected into the infarct zone immediately after LAD ligation (Magadum A., et al., Circulation. 2020, 141 (15): 1249-1265). For examination of heart histology, hearts were collected at the end of each study, quickly washed in PBS, weighed, and fixed in 4% PFA for cryo-sectioning and immunostainings. In all experiments, the surgeon was blinded to the treatment group. For assessment of heart histology, hearts were collected at the end of each study. The hearts were excised, briefly washed in PBS, perfused with perfusion buffer, weighed and fixed in 4% PFA at 4° C. overnight. The heart blocks were transverse sectioned at 6-8 μm using cryostat. The heart sections were further processed for histological evaluation using immunostaining (see below) or histological scar staining using Masson's trichrome staining kit (Sigma) according to standard procedures. Measuring the ratio of heart weight to body weight was done using a scale. This ratio was calculated as the heart tissue weight relative to the mouse total body weight in grams (g).
Mice were injected with AAV9-GFP or AAV9-YAP1-shRNA (GeneCopoeia) through retro-orbital injection 7 days before LAD. A total of 5×10^11 viral genomes (50 μl total volume delivered) was injected per mouse. The level of YAP1 inhibition was determined at the mRNA level by qPCR 14 days post injection.
Mice hearts were harvested, weighed, and fixed in 4% PFA/PBS overnight on shaker and then washed with PBS for 1 hour and incubated in 30% sucrose/PBS at 4° C. for 12-18 hours. Hearts were then fixed in OCT and frozen at −80° C. (Magadum A., et al., Circulation. 2020, 141 (15): 1249-1265). Transverse heart sections (6-8 μm) were made using a cryostat. Frozen sections were rehydrated in PBS for 5-10 min followed by permeabilization with PBS with 0.1% Triton™ X100 (PBST) for 7-8 min. Heart sections were then treated with 3% H2O2 for 5 min and washed (3×5 min) with PBST. The samples were then blocked with PBS+10% Donkey normal serum+0.1% Triton™ X100 (PBSST) for 1 hour at room temperature. Primary antibodies (see complete list of primary antibodies used for this Example in Table 2 below) diluted in PBST were added and incubated overnight at 4° C. Slides were washed with PBST (3×5 min) followed by incubation with a secondary antibody (Invitrogen, 1:200) diluted in PBST for 90-120 min at room temperature. The samples were further washed with PBST (3×5 min) and stained with DAPI or Hoechst 33342 (1 μg/ml) diluted in PBST for 7 min. After being washed with PBST (3×7 min) and tap water (1×5 min) slides were mounted with mounting medium (VECTASHIELD®) for imaging (Magadum A., et al., Circulation. 2020, 141 (15): 1249-1265). Stained slides were stored at 4° C. All staining was performed on 4-8 hearts/group, with 2-3 sections/heart. For immunostaining with wheat germ agglutinin (WGA) for CM size quantification, images were captured at 40× magnification, and ImageJ was used to determine the area of each cell. […]

PSAT1 = PSAT1 protein expression in mouse myocardium post-MI after modRNA delivery; assay type: in vivo; settings: 100 μg modRNA into myocardium post-MI; within 24 hours
Method: In vivo transfection of modRNA was done as described previously in a recent method paper (Magadum A., et al., Circulation. 2020, 141 (15): 1249-1265; Sultana N., et al., Mol Ther, 2017, 25 (6): 1306-1315) using sucrose citrate buffer containing 10 μl of sucrose in nuclease-free water (0.3 g/ml), 10 μl of citrate (0.1M pH-7; Sigma) mixed with 10 μl of different concentrations of modRNA in saline to a total volume of 30 μl. Immediately after LAD ligation, mice received an intra-myocardial injection of modRNA (100 μg) in total volume of 30 μL at 3 different sites (mid-anterior×2 places and apical anterior) in the peri-infarct area (Magadum A., et al., Circulation. 2020, 141 (15): 1249-1265; Magadum, A., et al., 2021, Advanced Science, 9:2004661). For in vitro transfection, RNAiMAX transfection reagent (Life Technologies) was used according to manufacturer's recommendation (Magadum A., et al., Circulation. 2020, 141 (15): 1249-1265; Sultana N., et al., Mol Ther, 2017, 25 (6): 1306-1315).
All surgical and experimental procedures with mice were performed in accordance with protocols approved by Institutional Animal Care and Use Committees at Temple University Animal Care and Use Committee (IACUC). C57BL6 or CM-specific MADM mice (8-12-weeks-old) were anesthetized with isoflurane. […] This ratio was calculated as the heart tissue weight relative to the mouse total body weight in grams (g). […]

B1: PSAT1 modRNA: modified mRNA with N1-methylpseudouridine, transcribed in vitro, encoding phosphoserine aminotransferase 1 (ORF SEQ ID NO: 1, RNA SEQ ID NO: 2) (nucleic acid)
chain: AUGGAAGCCACCAAGCAAGUGGUUAACUUUGGGCCCGGGCCUGCCAAGCUGCCACACUCGGUAUUGUUGGAGAUCCAGAAGCAGCUACUAGACUACAGAGGACUCGGCAUCAGUGUGCUCGAAAUGAGUCACAGGUCAUCAGAUUUUGCCAAGAUUAUUGGCAAUACAGAGAAUCUUGUGAGGGAAUUGCUAGCUGUUCCCAACAACUACAAGGUGAUCUUUGUACAAGGAGGUGGGUCUGGCCAGUUCAGUGCUGUCCCCUUAAAUCUGAUUGGCCUGAAAGCUGGAAGGAGUGCUGACUACGUGGUGACCGGAGCUUGGUCAGCUAAGGCUGCGGAAGAAGCCAAGAAGUUUGGAACGGUGAACAUUGUCCACCCUAAACUUGGAAGUUACACAAAAAUUCCAGACCCAAGCACCUGGAACCUCAACCCGGACGCCUCCUAUGUAUACUUCUGUGCAAACGAGACUGUGCACGGGGUGGAGUUUGACUUCGUACCUGACGUCAAGGGAGCGGUGCUGGUCUGUGACAUGUCCUCAAACUUCUUAUCCAGGCCGGUGGAUGUUUCCAAGUUUGGUGUGAUUUUCGCUGGUGCUCAGAAGAAUGUUGGCUCUGCCGGGGUGACGGUGGUGAUUGUCCGGGAUGACCUGCUGGGGUUCUCGCUCAGAGAGUGCCCAUCAGUCCUUGACUACAAAGUGCAGGCUGGGAACAACUCUUUGUAUAACACACCUCCGUGCUUCAGCAUCUACGUCAUGGGCAUGGUCCUGGAAUGGAUCAAGAACAACGGCGGGGCCGCAGCCAUGGAGAAGCUCAGCUCCAUCAAAUCCCAAAUGAUUUAUGAGAUCAUUGAUAAUUCUCAAGGAUUUUAUGUAUGCCCAGUGGAGCGCCAGAAUAGAAGCAGGAUGAACAUCCCAUUUCGCAUUGGCAACGCCAAAGGAGACGAAGCUUUGGAAAAGCGGUUUCUUGACAAGGCGGUAGAACUCAACAUGAUCUCCUUGAAGGGGCACAGGUCAGUGGGAGGCAUUCGUGCCUCUCUGUAUAACGCUGUCACAACCGAAGACGUUGAGAAGCUGGCGGCCUUCAUGAAGAAUUUCUUGGAGAUGCAUCAGCUGUGA
modifications: N1-methylpseudouridine
CM cell cycle inhibition under YAP1 inhibition (cardiomyocytes (CM); PSAT1 modRNA plus AAV9-YAP1-shRNA, compared to controls, significantly lower rate than PSAT1 modRNA alone): partially reversed | CMs positive for Aurora B (cardiomyocytes (CM); compared to Luc modRNA): significant increase | CMs positive for BrdU (DNA synthesis) (cardiomyocytes (CM); compared to Luc modRNA): significant increase | CMs positive for pH3 (cardiomyocytes (CM); compared to Luc modRNA): significant increase | PSAT1 protein expression in mouse myocardium (PSAT1): robust
